Target: receptors for CRF on murine pituitary tumor cell line AtT-20 (murine)
Assay: cell-based or functional assay

Production of c-AMP (nM): 2 fold
fold decrease in Production of c-AMP (nM): 10 fold
Substance: CRF-conjugated dextran-coated and maleimide surface-modified magnetonanoparticles (peptide)
